In patent US20180327500A1 (SYMPHOGEN A S, published 2018):

T1: Mouse Blade 1-5
T1 construct: human/mouse chimera on transfected HEK293 cells; also called AA 25-430
T1 MET ECD-SV5-GPI fusion: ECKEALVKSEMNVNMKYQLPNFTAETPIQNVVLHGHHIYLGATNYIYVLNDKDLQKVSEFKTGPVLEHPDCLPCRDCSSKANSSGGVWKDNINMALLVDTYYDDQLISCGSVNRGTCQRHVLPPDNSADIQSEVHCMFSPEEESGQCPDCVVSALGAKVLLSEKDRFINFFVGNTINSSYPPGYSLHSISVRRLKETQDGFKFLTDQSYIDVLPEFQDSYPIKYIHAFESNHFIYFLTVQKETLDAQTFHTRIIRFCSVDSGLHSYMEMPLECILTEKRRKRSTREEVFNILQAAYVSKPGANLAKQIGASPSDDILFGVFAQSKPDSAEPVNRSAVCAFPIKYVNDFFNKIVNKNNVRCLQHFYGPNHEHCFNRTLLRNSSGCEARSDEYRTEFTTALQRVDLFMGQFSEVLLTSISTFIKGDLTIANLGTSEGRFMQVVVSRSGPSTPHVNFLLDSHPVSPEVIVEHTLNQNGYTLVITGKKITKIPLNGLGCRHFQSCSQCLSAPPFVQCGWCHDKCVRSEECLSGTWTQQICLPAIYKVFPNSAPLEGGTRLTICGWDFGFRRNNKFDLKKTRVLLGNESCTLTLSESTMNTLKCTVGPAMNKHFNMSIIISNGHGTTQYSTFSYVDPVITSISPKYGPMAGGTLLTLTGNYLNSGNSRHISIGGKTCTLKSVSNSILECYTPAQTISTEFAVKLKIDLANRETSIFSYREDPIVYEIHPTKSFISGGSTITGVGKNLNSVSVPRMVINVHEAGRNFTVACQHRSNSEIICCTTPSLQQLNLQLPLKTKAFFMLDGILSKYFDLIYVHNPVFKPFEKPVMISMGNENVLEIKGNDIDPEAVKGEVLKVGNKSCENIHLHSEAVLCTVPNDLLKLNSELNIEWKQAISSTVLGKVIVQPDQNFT

T2: LS2
T2 construct: human/mouse chimera on transfected HEK293 cells
T2 MET ECD-SV5-GPI fusion: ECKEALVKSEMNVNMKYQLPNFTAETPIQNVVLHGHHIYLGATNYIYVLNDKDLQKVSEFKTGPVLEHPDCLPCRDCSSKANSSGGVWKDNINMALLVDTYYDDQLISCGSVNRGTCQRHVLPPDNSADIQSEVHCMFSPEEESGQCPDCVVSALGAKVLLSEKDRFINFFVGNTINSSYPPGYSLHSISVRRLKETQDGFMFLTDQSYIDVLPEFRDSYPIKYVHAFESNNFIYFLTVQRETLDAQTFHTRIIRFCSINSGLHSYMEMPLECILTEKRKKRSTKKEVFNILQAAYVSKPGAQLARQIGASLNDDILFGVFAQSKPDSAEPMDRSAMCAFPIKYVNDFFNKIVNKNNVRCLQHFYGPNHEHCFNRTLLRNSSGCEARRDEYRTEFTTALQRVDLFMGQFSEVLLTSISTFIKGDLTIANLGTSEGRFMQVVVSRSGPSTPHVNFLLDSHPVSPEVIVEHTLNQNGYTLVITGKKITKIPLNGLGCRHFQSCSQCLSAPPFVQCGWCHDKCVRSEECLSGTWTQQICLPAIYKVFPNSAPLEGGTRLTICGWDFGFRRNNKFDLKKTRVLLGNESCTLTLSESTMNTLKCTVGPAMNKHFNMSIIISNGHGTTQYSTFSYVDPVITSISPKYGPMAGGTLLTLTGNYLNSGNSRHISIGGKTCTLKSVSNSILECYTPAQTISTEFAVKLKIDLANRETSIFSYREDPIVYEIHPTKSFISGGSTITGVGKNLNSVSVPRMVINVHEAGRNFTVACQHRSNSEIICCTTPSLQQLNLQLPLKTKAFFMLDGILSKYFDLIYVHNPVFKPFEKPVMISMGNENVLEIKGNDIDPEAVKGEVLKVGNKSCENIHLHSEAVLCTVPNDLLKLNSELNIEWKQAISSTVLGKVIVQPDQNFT

T3: Mouse Blade 1-4
T3 construct: human/mouse chimera on transfected HEK293 cells; also called AA 25-295
T3 MET ECD-SV5-GPI fusion: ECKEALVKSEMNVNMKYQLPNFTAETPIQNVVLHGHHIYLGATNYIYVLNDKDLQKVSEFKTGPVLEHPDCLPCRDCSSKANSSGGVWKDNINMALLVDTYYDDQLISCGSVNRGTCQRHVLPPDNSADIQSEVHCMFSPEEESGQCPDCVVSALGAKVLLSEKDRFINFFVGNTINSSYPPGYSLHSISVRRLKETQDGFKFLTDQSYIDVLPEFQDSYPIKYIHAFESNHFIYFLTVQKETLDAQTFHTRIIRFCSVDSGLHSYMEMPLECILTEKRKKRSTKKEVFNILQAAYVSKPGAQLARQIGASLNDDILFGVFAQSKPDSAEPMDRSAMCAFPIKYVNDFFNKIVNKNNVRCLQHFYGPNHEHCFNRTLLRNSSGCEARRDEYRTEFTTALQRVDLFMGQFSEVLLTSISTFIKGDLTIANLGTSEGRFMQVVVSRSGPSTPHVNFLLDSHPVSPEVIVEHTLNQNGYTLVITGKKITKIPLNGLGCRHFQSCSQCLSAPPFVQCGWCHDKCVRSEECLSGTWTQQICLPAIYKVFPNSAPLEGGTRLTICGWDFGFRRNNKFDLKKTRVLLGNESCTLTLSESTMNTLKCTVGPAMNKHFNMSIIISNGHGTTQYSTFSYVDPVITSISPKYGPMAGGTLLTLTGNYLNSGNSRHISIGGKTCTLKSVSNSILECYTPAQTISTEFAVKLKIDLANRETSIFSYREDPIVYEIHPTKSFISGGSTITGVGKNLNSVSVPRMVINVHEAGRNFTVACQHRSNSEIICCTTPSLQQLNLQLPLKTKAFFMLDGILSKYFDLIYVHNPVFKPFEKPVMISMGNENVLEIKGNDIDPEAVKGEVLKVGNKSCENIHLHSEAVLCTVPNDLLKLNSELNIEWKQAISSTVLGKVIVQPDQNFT


How the values were obtained:
Assay in all cases: flow cytometry on transfected HEK293 cells;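 note: antibodies applied at 50 µg/ml, binding called specific when fluorescence exceeds the mean signal on a negative control chicken or mouse MET construct plus four SD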
[1] = molecular target: T1, Mouse Blade 1-5
Experimental: (§1) Cut-off values defined as the average fluorescence signal of all antibodies tested at 50 μg/ml to the negative control chicken or mouse MET construct+four standard deviations were employed to discriminate background binding from specific binding for the domain exchange or blade exchange constructs.

[2] = molecular target: T2, LS2
Experimental: as §1

[3] = molecular target: T3, Mouse Blade 1-4
Experimental: as §1

Row | binding result [1] | binding result [2] | binding result [3] | Binder
1 | no binding (tested: 50 µg/ml) | no binding (tested: 50 µg/ml) | no binding (tested: 50 µg/ml) | humanized antibody 9338 (antibody, human IgG1, kappa, V domains shown, also called Hu9338; hu9338) VH: QVQLVQSGAEVKKPGSSVKVSCKASGYTFTSYWMHWVRQAPGQGLEWMGYINPSSGHIENNQKFKDRVTITADKSTSTAYMELSSLRSEDTAVYYCARGRFAYWGQGTLVTVSS VL: EIVLTQSPATLSLSPGERATLSCSASSSVSSGYLYWYQQKPGQAPRLLIYSTSNLASGIPARFSGSGSGTDFTLTISSLEPEDFAVYYCHQWSSYPFTFGSGTKLEIKR
2 | no binding (tested: 50 µg/ml) | no binding (tested: 50 µg/ml) | no binding (tested: 50 µg/ml) | humanized antibody 9006 (antibody, human IgG1, kappa, V domains shown, also called Hu9006; hu9006) VH: QVQLVQSGSELKKPGASVKVSCKASGYTFTNFRMNWVKQAPGQGLKWMGWINTYTGEPTYVDDLKGRFVFSLDTSVSTAYLQISSLKAEDTAVYYCARKGIARAMDYWGQGTTVTVSS VL: DIVMTQSPDSLAVSLGERATINCKSSQSLLDSGNQKNYLAWYQQKPGQPPKLLIFGASTRESGVPDRFSGSGSGTDFTLTISSLQAEDVAVYYCQNDHSYPYTFGQGTKLEIKR
